Variants at the floor of the assay were thinned out. Some results are limits rather than exact numbers.

The values below come from the RNAGym collection of RNA variant scans (doi:10.1073/pnas.2313332121).

To fix the notation:
B1: TPR 5TU (parent)
chain: GGAUCUUCUCGAUCUAACAAAAAAGACAAAUCUGCCACAAAGCUUGAGAGCAUCUUCGGAUGCAGAGGCGGCAGCCUUCGGUGGCGCGAUAGCGCCAACGUUCUCAACUAUGACACGCAAAACGCGUGCUCCGUUGAAUGGAGUUUAUCAUG

This data set covers variants of B1. Put plainly: polymerase ribozyme fitness, log enrichment relative to wild type (log ratio); higher = more active; in vitro selection for triplet polymerase activity. The procedure, abridged: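 Only genotypes with ≥10 input reads and ≥1 read per output were kept after Illumina sequencing of input and output libraries. These libraries were PCR-built, transcribed mutants of each subunit of a heterodimeric triplet polymerase ribozyme, each put through one triplicate in vitro selection round with frozen incubation at −7 °C, gel excision of extended constructs, streptavidin-bead capture and RT-PCR. Fitness is a logarithmic ratio of genotype enrichment to wild-type enrichment, from inverse-variance-weighted replicate averages, with the logarithm in base 2.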
For GGAUCUUCUCGAUCUAACAAUAAAGACAAAUCUGCCACAAAGCUUGAGACCAUCUUCGGAUGCAGAGGCGGCAGCCUUCGGUGUCGCGAUAGCGCCAACGUUCUCAACUAUGACACGCAAAACGCGUGCUCCGUUGAAUGGAGUUUAUCAUG, the “polymerase ribozyme fitness (log ratio)” value is -4.11.

Consider GGAUCUUCUCGAUCUAACAAAAAAGACAAAUCUGCCACAAAGCUUGAGUGUAUCUUCGGAUGCAGAGGCGGCAGCCUUCGGUGGCGCGAUAGCGCCAACGUUCUCAACUAUGACACGCAAAACGCGUGCUCCGUUGAAUGGAGUUUCUCAUG, for which the “polymerase ribozyme fitness (log ratio)” value is -0.373.

For the variant GGAUGUUCUCGAUCUAACAAAAAAGACAAAUAUGCCACAAAGCUUGAGAGCAUCUUCGGAUGCAGAGGCGGCAGCAUUCGGUGGCGCGAUAGCGCCAACGUUCUCAACGAUGACACGCAAAACGCGUGCUCCGUUGAAUGCAGUUUAUCAUG, the “polymerase ribozyme fitness (log ratio)” value is no more than -4.2.

Take GGAUCUUCUCGAUCUAACAAAAAAGACAAAUCUGCCACAAAGCUUGAGAGCAUCUUCGGAUGCAGAGGCGGCAGCCGUCGGUGACGCGAUAGCGCCAACGUUCUCAACUAUGACACGCAAAACGCGUGCUCCGUUGAAUGGAGUUUAUCAUG: the “polymerase ribozyme fitness (log ratio)” value is no more than -4.2.

Regarding GGAUCUUCUCGAUCUAACAAAAAAGACAAAUCUGCCACAAAGCUUGAGAGCAUCUACGGAUGCAGAGGCGGCAGCCUUCGGUGGCGCGAUAGCGCCAACGUUCUCAACUAUGACACGCAAAACGCUUGCUCCGUUGAAUGGAGUUUAUCAUG, the “polymerase ribozyme fitness (log ratio)” value is 0.137.

Take GGAUCUUCUCGAUCUAACAAAAAAGACAAAUAUGCCCCAAAGCUUGAGAGCAUCUUCGGAUGCAGAGGCGGCAGCCUUCGGUGGCGCGAUAGCGCCAACGUUCUCAACUAUGACACGCAAAACGCGUGCUCCGUUGAAUGGAGUUUAUCAUG: the “polymerase ribozyme fitness (log ratio)” value was no more than -4.2.

On to GGAUCUUCUCGAUCUAACAAAAAAGACAAAUCUGCCACAAAGCUUGAGAGCAUCUUCGGAUGCAGAGGCGGCAGCCUUCGGGGGCGCGAUAGCGCCGGCGUUCUCAACUAUGACACGACAAACGCGUGCUCCGUUGAAUCGAGUUUAUCAUG, for which the “polymerase ribozyme fitness (log ratio)” value is no more than -4.2.

Consider GGAUCUUCUCGAUAUAACAAAAAAGACAAAUCUGCCACAAAGCUUGAAAGCAUCUUCGGAUGCAGAGGCGGCAGCCUUCGGUGGCGCGAUUGCGCCAACACUCUCAACUAUGACACGCAAAACGCGUGCUCCGAUGAAUGGAGUUUAUCAUG, for which the “polymerase ribozyme fitness (log ratio)” value was no more than -4.2.

On to GGAUCUUCUCGAUCUAACAAAAAAGACAAAUCUGCCACAAAGCUUGAGAGCAUCUUCGGAUGCAGAGGCGGCAGCCUUCGGUAGCGCGAUAGCGCCAACGUUCUCAACUAUGACACGCAAAACGCGUGCUCCGUUGAAUGGAGUUUAUCAGG, for which the “polymerase ribozyme fitness (log ratio)” value is -3.97.

Consider GGAUCUUCUCGAUCUAACAAAAAAGACAACUCUGCCACAAAGGUAGAGAGCAUCUUCGGAUGCAGAGGCGGCAGCCUUCGGUGGCGAGAUAGCGCCAACGUUAUCAACUAUGACACGCAAAACGCGUGCUCCGUUGAAUGGAGUUUAUCAUG, for which the “polymerase ribozyme fitness (log ratio)” value is no more than -4.2.

Regarding GGAUCUUCUCGAUCUAACAAAAAAGACAAAUCUGCCACAAAGCUUGAGAGCAGCUUCGGAUGCAGAGGCGGCAACCUUCGGUGGCGCGAUAGCGCCAACGUUCUCAACUAUGAGACGCAAAACGCGUGCUCCGUUGAAUGGAGUUUAUCAUG, the “polymerase ribozyme fitness (log ratio)” value was no more than -4.2.

Turning to GGAUCUUCUCGAUCUAACAAAAAAGACAAAUCUGCCACAAAGCUUGAGCGCAUCUUCGGAUGCUGAUACGACAGCCUUCGGUGGCGCGAUAGCGCCAACGUUCUCAACUAUGACACGCAAAACGCGUGCUCCGUUGAAUGGAGUUUAUCAUG, the “polymerase ribozyme fitness (log ratio)” value is no more than -4.2.

For the variant GGAUCUUCUCGAUCUAACAAAAAAGACAAAUCUGCCACAAAGCUUGAGAGCAUCUUCGGAUGCAGAGGCGGCAGCCUUCGGUGGGGCGAUAGCGCCAACGUUCUCAACUAUGACACGCAAAACGCGUGCUCCGUUGAAUGUAGUUAAUCAUG, the “polymerase ribozyme fitness (log ratio)” value was -0.46.

As for GGAUCUUCUCGAUCUAACAAAACAGACAAAUCUGCCACAAAGCUUGAGAGCAUCUUCGGAUGCAGAGGCGGCAGCCUUCGGUGGCGCGAUAGCGCCAACGUUCUCAACUAUGACACGCAAAACGCGUGCUCCGUUGAAUGCAGUUUAUCAUG, the “polymerase ribozyme fitness (log ratio)” value was -3.64.

In the case of GGAUCUUCUCGAUCUAACAAAAAAGACAAAUCUGCCACAAAGCUUGAGCGCAUCGUCGGAAGCAGAGGCGGCAGCCUUCGGUGGCGCGAUAGCGCAAACGUUCUCAACUAGGACACGCUAAACGCGUGCUCCGUUGAAUGGAGUUUACCAUG, the “polymerase ribozyme fitness (log ratio)” value was no more than -4.2.

Turning to GGAUCUUCUCGAUCUAACAAAAAAGACAAAUCUGCCACAAAGCUUGAGAGCAUCUUCGGAUGCAGAGGCGGCAGCCUUCAGUGGCGCGAUAGCGCCAAGGUUCUCAACUAUGACACGCAAAACGCGUGCUCCGUUGAAUGGAGUUUAUCAUG, the “polymerase ribozyme fitness (log ratio)” value was -1.02.

On to GGAUCUUCUCGAUCUAACAAAAAAGACAAAUCUGCCCCAAAGCUUGAGAGCAUCUUCGGAUGCAGAGGCGGCAGCAUUCGGUGGCGCGAUAGCGCCAACGUUCUCAACUAUGACACGCAAAACGCGUGCUCCGUUGAAUGGAGUUUAUCAUG, for which the “polymerase ribozyme fitness (log ratio)” value was -3.34.

Take GGAUCUUCUCGAUCUAACAAAAAAGACAAAUCUGCCACAAAGCUUGAGAGCAUCUUCGGAUGCAGAGGCGGCAGCCUUCGGUCGCGCGAUAUCGCCAACGUUCUCAACUAUGACACGCAAAACGCGUGCUCCGUUGGAUGGAGUUUAUCAUG: the “polymerase ribozyme fitness (log ratio)” value was -3.45.

In the case of GGAUCUUCUCGAUCUAACAAAAAUGACAAAUCUGCAACAAAGCAUGAGAGCAUCUUCGGAUGCAGAGGCGGGAGCCUUCGGUGGCGCGAUAGCGACAACGUUCUCAACUAUGACACGCGAAACGCGUGCUCCGUUGAAUCGAGUUUAUCAUG, the “polymerase ribozyme fitness (log ratio)” value is no more than -4.2.
